The nature of this series: amyloid nucleation score (Sup35N fusion, yeast selection) (log enrichment); library NNK3; higher = more nucleation; inactive = no reads after selection. The method in brief: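 The nucleation score, computed with DiMSum, is the log enrichment of output over input reads, centred on the mode score of non-aggregating sequences. Sequences with under 100 input reads were dropped. Reads were generated by Illumina sequencing of plasmid inserts from psi-negative yeast with Sup35N fused to peptides of 20 random codons, induced with 100 μM copper sulfate for 24 hours and grown 7 days at 30°C on medium lacking adenine and uracil.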

± gives the uncertainty stated by the source.

For the substance TVLGELKVLFRYWFHIIWYF, the amyloid nucleation score entry is “inactive”.

Regarding SMLAPCHELEHMGRCGECSN, the amyloid nucleation score result was “inactive”.

For KCRGGRETIRLRRSLWVFMV, the amyloid nucleation score entry was “inactive”.

Regarding SRSVTESLCLYT, the amyloid nucleation score result was “inactive”.

Turning to IRGKYRLVVRDSLNVTPYRV, the amyloid nucleation score result is “inactive”.

Turning to FILFRYVTNALRKSAWVRLC, the amyloid nucleation score result was “inactive”.

On to WTMSKLNGRCTSCPHLARLS, for which the amyloid nucleation score entry is “inactive”.

With RKMMCKWLCNIKGYIIVV, the amyloid nucleation score result was “inactive”.

On to VWRAWAINGTATWCLIGDHG, for which the amyloid nucleation score entry was “inactive”.

Consider FPGSS, for which the amyloid nucleation score result was “inactive”.

Turning to FPYLRRTMGVLIYQCVPIRG, the amyloid nucleation score entry was “inactive”.

Take TASCEYFELQPIKNLH: the amyloid nucleation score entry was “inactive”.

Substance TCMYLRDHR gave an amyloid nucleation score of -0.337 ± 0.98.

With GGVTYRQDLTRYLSG, the amyloid nucleation score result was “inactive”.

As to VRFYVAYFILFSDATAMALK, the amyloid nucleation score entry was “inactive”.

As for SYHYHATILSWTYYVTVYFL, the amyloid nucleation score entry was “inactive”.

In the case of DYYLNLGGK, the amyloid nucleation score entry is “inactive”.

In the case of CDRLIVHLFSHLDSGSSVVL, the amyloid nucleation score entry was “inactive”.

Consider NLYLSDNVCRVMKASVWVHA, for which the amyloid nucleation score entry is “inactive”.

On to FHPFFIGVGSFLGSLHEFQS, for which the amyloid nucleation score entry is “inactive”.

In turn, TFRICADMCCTGVR came in with an amyloid nucleation score of 1.45 ± 0.11.

Consider SSSNTRFVGAERCVGSWCGS, for which the amyloid nucleation score entry is “inactive”.

For RTIFFFLDSMLIYSRAVCRL, the amyloid nucleation score entry is “inactive”.

For KLDLQSSFLFLGSVHV, the amyloid nucleation score result was “inactive”.

Regarding SLVSYRLWIYDLWMTWL, the amyloid nucleation score result is “inactive”.

Turning to IYGVRYWV, the amyloid nucleation score result was “inactive”.

On to RANWLGLVTVGS, for which the amyloid nucleation score result is “inactive”.

As for LGYIQEN, the amyloid nucleation score entry was “inactive”.

Regarding VDHRGALVEKFMNNSIWTSF, the amyloid nucleation score worked out at 0.122 ± 0.98.

On to VYPWFA, for which the amyloid nucleation score entry is “inactive”.

For VSANSMFIRGLIDSILAELA, the amyloid nucleation score entry is “inactive”.

NKWYSNLQNCCCSLNHTGEG: the amyloid nucleation score amounted to 0.624 ± 0.23.

In the case of ALWYENDCRWLDEVHRARTG, the amyloid nucleation score entry was “inactive”.

For the substance FQKGLRQDYQVFLFDSNRFW, the amyloid nucleation score result was “inactive”.

For NNTSGNLVCFSVKCNVIVPY, the amyloid nucleation score was determined as 2.42 ± 0.056.

Consider VLMGMRCEREFPE, for which the amyloid nucleation score result is “inactive”.

For the substance LHIHRFWQQPHTNAGRIPHP, the amyloid nucleation score result is “inactive”.

Regarding CVGMEVCGWEGS, the amyloid nucleation score entry is “inactive”.

For the substance NSCSVVMFPYH, the amyloid nucleation score result was “inactive”.

As for LKADRVVSFFWLCSFIFTSI, the amyloid nucleation score entry was “inactive”.

For the substance VCYYVFRTDIIIVIRVDAWL, the amyloid nucleation score entry is “inactive”.

For the substance SNCRCIEGVFYHTYNQKAVR, the amyloid nucleation score entry was “inactive”.

Take PDINM: the amyloid nucleation score result is “inactive”.

For the substance TNPMYK, the amyloid nucleation score entry is “inactive”.

For LDFRSVTDVWSCYI, the amyloid nucleation score entry was “inactive”.

Turning to TCWLVFSSFPINKLVLRNKT, the amyloid nucleation score result is “inactive”.

On to ANAVLKIFTSVMGSVNS, for which the amyloid nucleation score result is “inactive”.

For ISGKCRIVAVESSCECSLSS, the amyloid nucleation score result was “inactive”.

Turning to HRLVFCQLTR, the amyloid nucleation score entry is “inactive”.

For the substance VWIRRTCDFNQYRESDLLIR, the amyloid nucleation score result is “inactive”.

Regarding YGSIIV, the amyloid nucleation score result was “inactive”.

Take ISRLR: the amyloid nucleation score entry is “inactive”.

For YGQGSGGIGRRVAGQDCNLI, the amyloid nucleation score entry is “inactive”.

The substance SGTHNKVSTRMFGWNFI registered an amyloid nucleation score of 0.584 ± 0.11.

For FVMRYRVVYSDRCFELGWHA, the amyloid nucleation score was -0.567 ± 0.76.

As to GLLSPRTGCD, the amyloid nucleation score result is “inactive”.

Turning to KSVVGFFVSARYCCTLGTGG, the amyloid nucleation score result is “inactive”.

With ICCKYGDAKRLVCWSQKSRK, the amyloid nucleation score result was “inactive”.

Turning to SIFPRTCTKFFLGVTGFCFN, the amyloid nucleation score is -0.322 ± 0.8.

With VFRMCVYIDLVSLDSYYDVL, the amyloid nucleation score result was “inactive”.

Turning to LRWLDVLDHTLDIYVSNESI, the amyloid nucleation score result was “inactive”.

As to VIVSREKSITRSNVIEWWNL, the amyloid nucleation score was 1.82 ± 0.11.

On to CFMSLLNF, for which the amyloid nucleation score entry is “inactive”.

With DYGATGHC, the amyloid nucleation score result is “inactive”.

Consider AVLGLMLPCFRARRAWIAPP, for which the amyloid nucleation score is -0.22 ± 1.5.

On to DDIRCMFRTADFRAKMSVNS, for which the amyloid nucleation score result is “inactive”.

For IYDRMGGHL, the amyloid nucleation score entry was “inactive”.

SKVGSWYDAT had an amyloid nucleation score of -0.506 ± 1.1.

Turning to LYETSRSFPH, the amyloid nucleation score entry is “inactive”.

With GTMYVGSGGYEKL, the amyloid nucleation score entry was “inactive”.

For PIFWR, the amyloid nucleation score result is “inactive”.

As for TVYEA, the amyloid nucleation score entry is “inactive”.

As to CSNRFSNHFMYYVSMLGDGL, the amyloid nucleation score entry was “inactive”.

For the substance WNMVYFLLQFSIDASLGT, the amyloid nucleation score result was “inactive”.

Consider SYSISDDLVTNHVPQNST, for which the amyloid nucleation score entry is “inactive”.

Take FRSWPS: the amyloid nucleation score result is “inactive”.

Take VSFELYMHFSSFSYFGMLKG: the amyloid nucleation score was 1.16 ± 0.13.

For the substance SIGCIHARCAYEEFDMVVIC, the amyloid nucleation score entry is “inactive”.

As for GSMMLWCFIDSSWDLSLRK, the amyloid nucleation score was 0.884 ± 0.19.

For GFYWYTVFAVSLDDCLSKSS, the amyloid nucleation score entry is “inactive”.

Regarding VLTIRRFLRVSHFRNQWFPV, the amyloid nucleation score result is “inactive”.

Take SLLFFRWDIWTVASGYD: the amyloid nucleation score entry was “inactive”.

For the substance SGSGWKICRNSHAGAVFYSR, the amyloid nucleation score result is “inactive”.

Turning to SGCRLLVVECPASCCWDITT, the amyloid nucleation score result was “inactive”.

Consider RGSCRLVNLEPCRIM, for which the amyloid nucleation score entry was “inactive”.

As for GHTANLTYALFMGDFSRAGI, the amyloid nucleation score entry is “inactive”.

In the case of PDNGLRAIMTAGPVFSRQSN, the amyloid nucleation score entry is “inactive”.

Turning to VKKSDWAVGLVDSDQCVHFD, the amyloid nucleation score result is “inactive”.

On to GAKIPELSLLMVTPINARSF, for which the amyloid nucleation score entry was “inactive”.

Regarding DVDVPT, the amyloid nucleation score result is “inactive”.

As for YQFFDASLIAR, the amyloid nucleation score entry was “inactive”.

Turning to WIHSGSSHWLNACDRMDMTK, the amyloid nucleation score was -0.753 ± 1.3.

GFAISQAYALSTPFVCISAI: the amyloid nucleation score result was “inactive”.

Consider SPDDVDYFFLVRNDRMCAYV, for which the amyloid nucleation score entry is “inactive”.

As for ISNVIMWNWGLDFTNYYSDS, the amyloid nucleation score stood at 1.45 ± 0.093.

For YYFRAQADCFMYICVLDLDG, the amyloid nucleation score entry was “inactive”.

Take VSFNKPLKQVKGPAVTGWKE: the amyloid nucleation score result was “inactive”.

For the origin of these results see the supplement of paper PMC12042874.
